Assay results reported in publication PMC11327461, “Exogenous serpin B1 restricts immune complex-mediated NET formation via inhibition of a chymotrypsin-like protease and enhances microbial phagocytosis” (The Journal of Biological Chemistry, 2024).

B1: proteinase 3 (enzyme, human, UniProt P24158 28-248, looked up)
chain: IVGGHEAQPHSRPYMASLQMRGNPGSHFCGGTLIHPSFVLTAAHCLRDIPQRLVNVVLGAHNVRTQEPTQQHFSVAQVFLNNYDAENKLNDVLLIQLSSPANLSASVATVQLPQQDQPVPHGTQCLAMGWGRVGAHDPPAQVLQELNVTVVTFFCRPHNICTFVPRRKAGICFGDSGGPLICDGIIQGIDSFVIWGCATRLFPDFFTRVALYVDWIRSTLR
notes: hPR3, neutrophil serine protease; also called hPR3; PR3; source: bought: Athens Research and Technology
B2: cathepsin G (enzyme, human, UniProt P08311 21-244, looked up)
chain: IIGGRESRPHSRPYMAYLQIQSPAGQSRCGGFLVREDFVLTAAHCWGSNINVTLGAHNIQRRENTQQHITARRAIRHPQYNQRTIQNDIMLLQLSRRVRRNRNVNPVALPRAQEGLRPGTLCTVAGWGRVSMRRGTDTLREVQLRVQRDRQCLRIFGSYDPRRQICVGDRRERKAAFKGDSGGPLLCNNVAHGIVSYGKSSGVPPEVFTRVSSFLPWIRTTMRS
notes: cathepsin G (hCG), neutrophil serine protease; also called hCG; Cat G; source: bought: Athens Research and Technology

Molecular target: T1, recombinant human serpin B1, wild type (C344) (human, UniProt P30740 1-379)
T1 construct: serpin B1, human, recombinant, wild type (C344); non-glycosylated, 42 kDa by the discussion; also called rhsB1; sB1; source: yeast S. cerevisiae, purified
T1 sequence (looked up): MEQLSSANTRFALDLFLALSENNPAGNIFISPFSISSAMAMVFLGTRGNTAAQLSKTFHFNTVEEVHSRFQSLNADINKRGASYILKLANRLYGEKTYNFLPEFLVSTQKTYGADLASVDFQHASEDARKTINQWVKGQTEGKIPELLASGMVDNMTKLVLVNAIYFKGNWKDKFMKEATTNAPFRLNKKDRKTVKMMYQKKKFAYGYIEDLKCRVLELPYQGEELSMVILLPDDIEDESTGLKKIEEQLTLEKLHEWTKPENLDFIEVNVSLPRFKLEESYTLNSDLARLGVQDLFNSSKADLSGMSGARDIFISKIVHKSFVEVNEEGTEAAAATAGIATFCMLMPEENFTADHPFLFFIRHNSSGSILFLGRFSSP
Assay: formation of SDS- and heat-stable serpin-protease complexes, SDS-PAGE; 2 uL of hNE, hPR3 or hCG (23.4 uM each) mixed with each sB1 protein at 1:1 molar ratio in 20 uL PBS, pH 7.4, 15 min; stopped with protease inhibitor mix; reducing sample buffer, heated, SDS-PAGE
Conditions: both partners purified

Row | Binder | binding result
1 | B1 | binds
2 | B2 | binds
